The target in this data set is T1, GST-Mei2 RRM1-RRM2 (Schizosaccharomyces pombe, UniProt P08965 191-373).
T1 sequence: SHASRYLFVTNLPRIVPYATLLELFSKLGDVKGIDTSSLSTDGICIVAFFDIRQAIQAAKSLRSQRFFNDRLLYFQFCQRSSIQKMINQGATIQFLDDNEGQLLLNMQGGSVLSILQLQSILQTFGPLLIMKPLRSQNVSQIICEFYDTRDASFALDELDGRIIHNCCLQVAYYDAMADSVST
In words: EMSA. Background: A gel shift assay detects complexes by their altered migration in electrophoresis.

Consider GUCAAUCUUCUGCCGUCUUG (ssRNA) [meiRNA 20mer], for which the binding result was “no binding”.

The values are drawn from PMC9486875.
